Data taken from article PMC2824085 (2010).

Target: Man9GlcNAc2 glycopeptide isolated from soybean agglutinin (soybean, UniProt P05046, Man9GlcNAc2 oligosaccharide, N-linked)
Test: SPR; glycopeptide immobilized

Chain of Man9GlcNAc2 glycopeptide isolated from soybean agglutinin (P05046 whole entry): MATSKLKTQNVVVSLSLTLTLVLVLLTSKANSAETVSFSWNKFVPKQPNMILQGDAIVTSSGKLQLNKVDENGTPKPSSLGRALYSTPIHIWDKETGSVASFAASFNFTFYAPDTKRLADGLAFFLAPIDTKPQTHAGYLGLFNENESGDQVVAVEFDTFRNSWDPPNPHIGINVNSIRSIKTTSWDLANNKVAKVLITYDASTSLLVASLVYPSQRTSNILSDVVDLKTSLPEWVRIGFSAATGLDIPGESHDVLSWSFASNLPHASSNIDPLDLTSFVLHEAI

Kd: 66 µM
B1: monomeric carbohydrate-recognition domain (CRD) from DC-SIGN (domain or fragment)
chain: ERLCHPCPWEWTFFQGNCYFMSNSQRNWHDSITACKEVGAQLVVIKSAEEQNFLQLQSSRSNRFTWMGLSDLNQEGTWQWVDGSPLLPSFKQYWNRGEPNNVGEEDCAEFSGNGWNDDKCNLAKFWICKKSAASCSRDEEQFLSPAPATPNPPPA
